# Test results taken from patent US20230002480A1.
# What was measured:
# Test in all cases: cell-based or functional assay
# [1] = biological target: HIV-1 Env of pseudovirus 1054_07_TC4_1499 (HIV-1)
# [2] = biological target: HIV-1 Env of pseudovirus 1056_10_TA11_1826 (HIV-1)
# [3] = biological target: HIV-1 Env of pseudovirus 191084 B7-19 (HIV-1)
# [4] = biological target: HIV-1 Env of pseudovirus 246F C1G (HIV-1)
# [5] = biological target: HIV-1 Env of pseudovirus 249M B10 (HIV-1)
# [6] = biological target: HIV-1 Env of pseudovirus 62357_14_D3_4589 (HIV-1)
# [7] = biological target: HIV-1 Env of pseudovirus 6535.3 (HIV-1)
# [8] = biological target: HIV-1 Env of pseudovirus 7030102001E5(Rev-) (HIV-1)
# [9] = biological target: HIV-1 Env of pseudovirus CAAN5342.A2 (HIV-1)
# [10] = biological target: HIV-1 Env of pseudovirus CAP210.2.00.E8 (HIV-1)
# [11] = biological target: HIV-1 Env of pseudovirus CNE58 (HIV-1)
# [12] = biological target: HIV-1 Env of pseudovirus Ce0393_C3 (HIV-1)
# [13] = biological target: HIV-1 Env of pseudovirus Ce0682_E4 (HIV-1)
# [14] = biological target: HIV-1 Env of pseudovirus Ce703010054_2A2 (HIV-1)
# [15] = biological target: HIV-1 Env of pseudovirus Ce704809221_1B3 (HIV-1)
# [16] = biological target: HIV-1 Env of pseudovirus Du172.17 (HIV-1)
# [17] = biological target: HIV-1 Env of pseudovirus HIV-001428-2.42 (HIV-1)
# [18] = biological target: HIV-1 Env of pseudovirus HIV-16055-2.3 (HIV-1)
# [19] = biological target: HIV-1 Env of pseudovirus Q259.d2.17 (HIV-1)
# [20] = biological target: HIV-1 Env of pseudovirus Q842.d12 (HIV-1)
# [21] = biological target: HIV-1 Env of pseudovirus REJO4541.67 (HIV-1)
# [22] = biological target: HIV-1 Env of pseudovirus ZM233M.PB6 (HIV-1)
substance,measurement,setting,value
PG16 (antibody),"IC50, titer in TZM.bl cells",[1],> 50 µg/mL
same,"IC80, titer in TZM.bl cells",[1],> 50 µg/mL
same,"IC50, titer in TZM.bl cells",[2],0.315 µg/mL
same,"IC80, titer in TZM.bl cells",[2],1.95 µg/mL
same,"IC50, titer in TZM.bl cells",[3],0.024 µg/mL
same,"IC80, titer in TZM.bl cells",[3],0.238 µg/mL
same,"IC50, titer in TZM.bl cells",[4],> 50 µg/mL
same,"IC80, titer in TZM.bl cells",[4],> 50 µg/mL
same,"IC50, titer in TZM.bl cells",[5],0.026 µg/mL
same,"IC80, titer in TZM.bl cells",[5],1.25 µg/mL
same,"IC50, titer in TZM.bl cells",[6],> 50 µg/mL
same,"IC80, titer in TZM.bl cells",[6],> 50 µg/mL
same,"IC50, titer in TZM.bl cells",[7],0.653 µg/mL
same,"IC80, titer in TZM.bl cells",[7],> 50 µg/mL
same,"IC50, titer in TZM.bl cells",[8],> 50 µg/mL
same,"IC80, titer in TZM.bl cells",[8],> 50 µg/mL
same,"IC50, titer in TZM.bl cells",[9],1.83 µg/mL
same,"IC80, titer in TZM.bl cells",[9],33 µg/mL
same,"IC50, titer in TZM.bl cells",[10],0.01 µg/mL
same,"IC80, titer in TZM.bl cells",[10],0.042 µg/mL
same,"IC50, titer in TZM.bl cells",[11],0.044 µg/mL
same,"IC80, titer in TZM.bl cells",[11],0.25 µg/mL
same,"IC50, titer in TZM.bl cells",[12],0.002 µg/mL
same,"IC80, titer in TZM.bl cells",[12],0.006 µg/mL
same,"IC50, titer in TZM.bl cells",[13],0.026 µg/mL
same,"IC80, titer in TZM.bl cells",[13],0.202 µg/mL
same,"IC50, titer in TZM.bl cells",[14],0.008 µg/mL
same,"IC80, titer in TZM.bl cells",[14],0.053 µg/mL
same,"IC50, titer in TZM.bl cells",[15],0.021 µg/mL
same,"IC80, titer in TZM.bl cells",[15],0.116 µg/mL
same,"IC50, titer in TZM.bl cells",[16],0.033 µg/mL
same,"IC80, titer in TZM.bl cells",[16],0.213 µg/mL
same,"IC50, titer in TZM.bl cells",[17],0.039 µg/mL
same,"IC80, titer in TZM.bl cells",[17],0.25 µg/mL
same,"IC50, titer in TZM.bl cells",[18],0.17 µg/mL
same,"IC80, titer in TZM.bl cells",[18],> 0.25 µg/mL
same,"IC50, titer in TZM.bl cells",[19],0.065 µg/mL
same,"IC80, titer in TZM.bl cells",[19],45.9 µg/mL
same,"IC50, titer in TZM.bl cells",[20],0.032 µg/mL
same,"IC80, titer in TZM.bl cells",[20],> 0.25 µg/mL
same,"IC50, titer in TZM.bl cells",[21],0.039 µg/mL
same,"IC80, titer in TZM.bl cells",[21],13.4 µg/mL
same,"IC50, titer in TZM.bl cells",[22],0.002 µg/mL
same,"IC80, titer in TZM.bl cells",[22],0.006 µg/mL
10E8 (antibody),"IC50, titer in TZM.bl cells",[1],0.046 µg/mL
same,"IC80, titer in TZM.bl cells",[1],0.305 µg/mL
same,"IC50, titer in TZM.bl cells",[2],0.134 µg/mL
same,"IC80, titer in TZM.bl cells",[2],1.03 µg/mL
same,"IC50, titer in TZM.bl cells",[3],5.16 µg/mL
same,"IC80, titer in TZM.bl cells",[3],> 10 µg/mL
same,"IC50, titer in TZM.bl cells",[4],2.22 µg/mL
same,"IC80, titer in TZM.bl cells",[4],9.94 µg/mL
same,"IC50, titer in TZM.bl cells",[5],1.27 µg/mL
same,"IC80, titer in TZM.bl cells",[5],9.05 µg/mL
same,"IC50, titer in TZM.bl cells",[6],0.119 µg/mL
same,"IC80, titer in TZM.bl cells",[6],1.06 µg/mL
same,"IC50, titer in TZM.bl cells",[7],0.081 µg/mL
same,"IC80, titer in TZM.bl cells",[7],1.32 µg/mL
same,"IC50, titer in TZM.bl cells",[8],6.71 µg/mL
same,"IC80, titer in TZM.bl cells",[8],> 10 µg/mL
same,"IC50, titer in TZM.bl cells",[9],1.28 µg/mL
same,"IC80, titer in TZM.bl cells",[9],9.28 µg/mL
same,"IC50, titer in TZM.bl cells",[10],0.798 µg/mL
same,"IC80, titer in TZM.bl cells",[10],3.89 µg/mL
same,"IC50, titer in TZM.bl cells",[11],1.29 µg/mL
same,"IC80, titer in TZM.bl cells",[11],8.27 µg/mL
same,"IC50, titer in TZM.bl cells",[12],1.18 µg/mL
same,"IC80, titer in TZM.bl cells",[12],7.42 µg/mL
same,"IC50, titer in TZM.bl cells",[13],1.22 µg/mL
same,"IC80, titer in TZM.bl cells",[13],7.71 µg/mL
same,"IC50, titer in TZM.bl cells",[14],2.3 µg/mL
same,"IC80, titer in TZM.bl cells",[14],8.58 µg/mL
same,"IC50, titer in TZM.bl cells",[15],0.058 µg/mL
same,"IC80, titer in TZM.bl cells",[15],0.319 µg/mL
same,"IC50, titer in TZM.bl cells",[16],0.109 µg/mL
same,"IC80, titer in TZM.bl cells",[16],0.837 µg/mL
same,"IC50, titer in TZM.bl cells",[17],0.809 µg/mL
same,"IC80, titer in TZM.bl cells",[17],7.3 µg/mL
same,"IC50, titer in TZM.bl cells",[18],0.722 µg/mL
same,"IC80, titer in TZM.bl cells",[18],6.5 µg/mL
same,"IC50, titer in TZM.bl cells",[19],4.59 µg/mL
same,"IC80, titer in TZM.bl cells",[19],> 10 µg/mL
same,"IC50, titer in TZM.bl cells",[20],4.19 µg/mL
same,"IC80, titer in TZM.bl cells",[20],> 10 µg/mL
same,"IC50, titer in TZM.bl cells",[21],0.203 µg/mL
same,"IC80, titer in TZM.bl cells",[21],1.69 µg/mL
same,"IC50, titer in TZM.bl cells",[22],0.442 µg/mL
same,"IC80, titer in TZM.bl cells",[22],2.39 µg/mL
